In patent publication US20150307603A1 (MODIQUEST B V, published 2015):
Non-standard residues stand in square brackets, D forms with d. No end group written: not given here. Cit = NC(=O)NCCC[C@H](N)C(=O)O

Experiments:
[1] = target: T1, human recombinant histone 2A (human); test: ELISA, Ab 0.08 ug/well
T1 construct: Non-deiminated; also called H2A
Text: (§1) The resulting OD (y-axis) is a measure for antibody binding. H1-recombinant histone 1; H1/p2-huPAD2 recombinant histone 1; H1/p4-huPAD4 recombinant histone 1, and so forth (x-axis).

[2] = target: T2, huPAD4-deiminated human recombinant histone 2B (human); test: ELISA, Ab 0.08 ug/well
T2 construct: also called H2B/p4
Text: as §1

[3] = target: T3, huPAD4-deiminated human recombinant histone 2A (human); test: ELISA, Ab 0.08 ug/well
T3 construct: also called H2A/p4; histone 2A/p4
Text: as §1

[4] = target: T4, huPAD2-deiminated human recombinant histone 2A (human); test: ELISA, Ab 0.08 ug/well
T4 construct: also called H2A/p2; histone 2A/p2
Text: as §1

[5] = target: T5, huPAD2-deiminated human recombinant histone 3 (human); test: ELISA, Ab 0.08 ug/well
T5 construct: also called H3/p2; histone 3/p2
Text: as §1

[6] = target: T6, CFC-1; test: ELISA, Ab 0.08 ug/well
T6 construct: Positive control for anti-citrulline reactivity; also called cfc1 XG; Cfc1-peptide
Text: as §1

[7] = target: T7, human recombinant histone 4 (human, UniProt P62805 2-103); test: ELISA, Ab 0.08 ug/well
Text: as §1

[8] = target: T8, msFibα XG (mouse, X at position 8 = citrulline; biotin-labelled); test: ELISA, Ab 0.08 ug/well
T8 peptide: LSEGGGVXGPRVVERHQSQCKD
Protocol: (§2) Biotin and citrulline-containing peptides derived from fibrinogen and vimentin were immobilized on NEUTRAVIDIN®-coated 96-well ELISA plates (0.3 μg/well). CFC-1 and CFC-0 were coated at the same concentration and served as positive and negative controls, respectively, for specific anti-citrulline reactivity and as coating controls. Non-coated wells were used to test for aspecific binding of the antibodies. […] Detection of bound anti-citrulline antibodies was performed by incubating the wells with rabbit anti-human HRP (1:2000) for 1 hour at RT followed by incubation with TMB substrate. The resulting OD (y-axis) is a measure for antibody binding.
(§3) Biotin-labeled and citrulline-containing fibrinogen and vimentin peptides (Table 5) were also tested for reactivity with the therapeutic antibodies. Peptides were coated on 96-well NEUTRAVIDIN®-ELISA plates.

[9] = target: T9, huFibα XH (human, X at position 15 = citrulline; biotin-labelled); test: ELISA, Ab 0.08 ug/well
T9 peptide: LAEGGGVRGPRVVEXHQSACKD
Protocol: as §2, §3

[10] = target: T10, msFibα XH (mouse, X at position 15 = citrulline; biotin-labelled); test: ELISA, Ab 0.08 ug/well
T10 peptide: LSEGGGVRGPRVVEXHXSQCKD
Protocol: as §2, §3

[11] = target: T11, huFibα XG (human, X at position 8 = citrulline; biotin-labelled); test: ELISA, Ab 0.08 ug/well
T11 peptide: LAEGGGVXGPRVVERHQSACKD
Protocol: as §2, §3

[12] = target: T12, msFibβ XG (mouse, also: biotin-labelled); test: ELISA, Ab 0.08 ug/well
T12 construct: also called mouse fibrinogen β peptide
T12 peptide: EPTDSLDA[Cit]GHRPVDRR
Protocol: as §2, §3

[13] = target: T13, msVim XS/XL (mouse, also: biotin-labelled); test: ELISA, Ab 0.08 ug/well
T13 construct: also called mouse vimentin peptide
T13 peptide: YVT[Cit]SSAV[Cit]L[Cit]SSVP
Protocol: as §2, §3

[14] = target: T6, CFC-1; test: ELISA, Ab 0.08 ug/well; remark: listed apart in the source
Protocol: as §2, §3

[15] = target: T3, huPAD4-deiminated human recombinant …; test: ELISA, Ab 10 ug/well
Text: as §1

[16] = target: T14, human recombinant histone 2B (human); test: ELISA, Ab 10 ug/well
T14 construct: Non-deiminated; also called H2B
Text: as §1

[17] = target: T5, huPAD2-deiminated human recombinant …; test: ELISA, Ab 10 ug/well
Text: as §1

[18] = target: T15, huPAD2-deiminated human recombinant histone 2B (human); test: ELISA, Ab 0.0032 ug/well
T15 construct: also called H2B/p2
Text: as §1

[19] = target: T16, huPAD4-deiminated human recombinant histone 3 (human); test: ELISA, Ab 0.0032 ug/well
T16 construct: also called H3/p4
Text: as §1

[20] = target: T2, huPAD4-deiminated human recombinant …; test: ELISA, Ab 0.0032 ug/well
Text: as §1

[21] = target: T3, huPAD4-deiminated human recombinant …; test: ELISA, Ab 0.0032 ug/well
Text: as §1

[22] = target: T14, human recombinant histone 2B; test: ELISA, Ab 0.0032 ug/well
Text: as §1

[23] = target: T4, huPAD2-deiminated human recombinant …; test: ELISA, Ab 0.0032 ug/well
Text: as §1

[24] = target: T5, huPAD2-deiminated human recombinant …; test: ELISA, Ab 0.0032 ug/well
Text: as §1

[25] = target: T6, CFC-1; test: ELISA, Ab 0.0032 ug/well
Text: as §1

[26] = target: T7, human recombinant histone 4; test: ELISA, Ab 0.0032 ug/well
Text: as §1

[27] = target: T8, msFibα XG; test: ELISA, Ab 10 ug/well
Protocol: as §2, §3

[28] = target: T9, huFibα XH; test: ELISA, Ab 10 ug/well
Protocol: as §2, §3

[29] = target: T10, msFibα XH; test: ELISA, Ab 10 ug/well
Protocol: as §2, §3

[30] = target: T11, huFibα XG; test: ELISA, Ab 10 ug/well
Protocol: as §2, §3

[31] = target: T12, msFibβ XG; test: ELISA, Ab 10 ug/well
Protocol: as §2, §3

[32] = target: T13, msVim XS/XL; test: ELISA, Ab 10 ug/well
Protocol: as §2, §3

[33] = target: T6, CFC-1; test: ELISA, Ab 10 ug/well
Protocol: as §2, §3

B1: RhmAb2.102 (antibody, human IgG1, lambda)
heavy: not shown
light: QSVLTQPPSMSAAPGQKVTISCSGSSSNIGNNYVSWYQQVPGTAPKLLIYDDNKRPSGIPGRFSGSKSATSATLGITGLQAGDEADYYCGSWDDNLSVVLFGGGTKLTVLGQPKAAPSVTLFPPSSEELQANKATLVCLISDFYPGAVTVAWKADSSPVKAGVETTTPSKQSNNKYAASSYLSLTPEQWKSHRSYSCQVTHEGSTVEKTVAPTECS
notes: Human IgG1 lambda; also called Rhm2.102
B1 gave an OD [1] of 0.06 OD450, an OD [2] of 0.052 OD450 and an OD [3] of 1.75 OD450. The OD [4] was 1.96 OD450, the OD [5] was 0.493 OD450 and the OD [6] was 2.15 OD450. It also gave an OD [7] of 0.067 OD450, an OD [8] of 0.237 OD450 and an OD [9] of 0.08 OD450. It also gave an OD [10] of 0.076 OD450, an OD [11] of 0.186 OD450 and an OD [12] of 0.515 OD450. The OD [13] was 0.515 OD450, the OD [14] was 3.03 OD450 and the OD [15] was 3.42 OD450. For the same binder, the OD [16] was 0.247 OD450, the OD [17] was 2.44 OD450 and the OD [18] was 0.052 OD450. It also gave an OD [19] of 0.065 OD450, an OD [20] of 0.052 OD450 and an OD [21] of 0.135 OD450. The OD [22] was 0.05 OD450, the OD [23] was 0.161 OD450 and the OD [24] was 0.08 OD450. It also gave an OD [25] of 0.178 OD450, an OD [26] of 0.06 OD450 and an OD [27] of 3.03 OD450. It also gave an OD [28] of 0.179 OD450, an OD [29] of 0.154 OD450 and an OD [30] of 2.73 OD450. For the same binder, the OD [31] was 3.8 OD450, the OD [32] was 3.69 OD450 and the OD [33] was 3.89 OD450.
